Source: patent US20230035798A1 (CAPELLA BIOSCIENCE, published 2023)

What was measured:
[1] = molecular target: membrane LIGHT without residues 81-84 (EL4-NC-LIGHT cells) (human, UniProt O43557 1-240); assay: cell-based or functional assay
[2] = molecular target: T1, human LIGHT (TNFSF14), full length, membrane-bound (214E allele) (human, UniProt O43557 1-240); assay: flow cytometry, transfected HEK293FF, mAb at EC50
T1 construct: also called membrane LIGHT; human membrane LIGHT
Description: (§1) The day of transfection the cells were seeded in a 24-well plate at 0.6×10⁶ cells/well. Lipofectamine 2000 (ThermoFisher scientific), 3 μl, was mixed with 50 μl OptiMEM medium (GIBCO) and then added to 50 μl Opti-MEM medium containing 3 ug plasmid DNA and incubated for 20 min at RT to form DNA-Lipofectamine 2000 complexes which were then added to the HEK293FF cells and incubated at 37° C., 5% CO₂ for 24 hours. For each construct, in duplicate, 0.60×10⁶ cells/well were used in a 96 well round bottom plate. Cells were centrifuged for 3 minutes at 300×g at 4° C., the supernatant discarded and the cells washed with 150 μl FACS buffer (0.5% FBS in phosphate buffered saline). This process was repeated 3 times. […] The wells were washed 3 times as above and 50 μl/well of goat anti-human IgG FITC (1:1500 dilution in FACS buffer, SIGMA F9512-2ML) or goat anti-mouse APC (1/500 dilution in FACS buffer, BDBioscience 550826), as appropriate, was added to the wells and incubated for 30 min at 4° C. protected from the light, with shaking. The cells were then washed as above, resuspended in 100 μl of FACS buffer and binding of the antibodies to the constructs was measured using flow cytometry and a total of 10,000 cells were acquired for each sample. Controls of buffer and secondary antibody only as well as HEK293FF non transfected cells were also used.

[3] = molecular target: T2, membrane LIGHT G188A (human, UniProt O43557 1-240); assay: flow cytometry, transfected HEK293FF, mAb at EC50
T2 construct: full-length LIGHT with the substitution on HEK293FF cells
T2 chain: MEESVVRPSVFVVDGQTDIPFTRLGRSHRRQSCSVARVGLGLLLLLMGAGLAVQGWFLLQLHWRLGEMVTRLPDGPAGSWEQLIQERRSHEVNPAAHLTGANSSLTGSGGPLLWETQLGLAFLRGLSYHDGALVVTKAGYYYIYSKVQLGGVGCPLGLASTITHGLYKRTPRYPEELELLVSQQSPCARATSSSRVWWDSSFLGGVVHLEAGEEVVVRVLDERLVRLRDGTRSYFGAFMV
Description: as §1

[4] = molecular target: T3, membrane LIGHT R189A (human, UniProt O43557 1-240); assay: flow cytometry, transfected HEK293FF, mAb at EC50
T3 chain: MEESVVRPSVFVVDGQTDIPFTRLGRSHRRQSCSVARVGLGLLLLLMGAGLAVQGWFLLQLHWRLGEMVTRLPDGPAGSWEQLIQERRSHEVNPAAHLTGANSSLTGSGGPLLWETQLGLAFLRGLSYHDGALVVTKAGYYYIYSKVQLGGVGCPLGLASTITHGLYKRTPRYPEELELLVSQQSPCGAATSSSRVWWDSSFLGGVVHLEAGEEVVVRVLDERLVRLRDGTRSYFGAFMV
Description: as §1

[5] = molecular target: T4, membrane LIGHT A190S (human, UniProt O43557 1-240); assay: flow cytometry, transfected HEK293FF, mAb at EC50
T4 chain: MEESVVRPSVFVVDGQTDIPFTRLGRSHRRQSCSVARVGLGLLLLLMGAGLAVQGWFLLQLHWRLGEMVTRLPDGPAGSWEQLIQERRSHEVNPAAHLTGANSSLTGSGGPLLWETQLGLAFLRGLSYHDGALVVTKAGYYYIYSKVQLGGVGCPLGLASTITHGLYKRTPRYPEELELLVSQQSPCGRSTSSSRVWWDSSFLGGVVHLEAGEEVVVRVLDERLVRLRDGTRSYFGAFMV
Description: as §1

[6] = molecular target: T5, membrane LIGHT T191A (human, UniProt O43557 1-240); assay: flow cytometry, transfected HEK293FF, mAb at EC50
T5 chain: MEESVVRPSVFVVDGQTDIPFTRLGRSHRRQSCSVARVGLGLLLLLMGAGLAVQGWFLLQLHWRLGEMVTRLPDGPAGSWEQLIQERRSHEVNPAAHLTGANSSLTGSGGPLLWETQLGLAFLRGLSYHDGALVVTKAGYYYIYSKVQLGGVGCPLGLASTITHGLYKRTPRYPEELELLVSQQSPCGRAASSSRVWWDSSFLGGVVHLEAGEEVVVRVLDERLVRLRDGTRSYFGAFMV
Description: as §1

[7] = molecular target: T6, membrane LIGHT S193A (human, UniProt O43557 1-240); assay: flow cytometry, transfected HEK293FF, mAb at EC50
T6 chain: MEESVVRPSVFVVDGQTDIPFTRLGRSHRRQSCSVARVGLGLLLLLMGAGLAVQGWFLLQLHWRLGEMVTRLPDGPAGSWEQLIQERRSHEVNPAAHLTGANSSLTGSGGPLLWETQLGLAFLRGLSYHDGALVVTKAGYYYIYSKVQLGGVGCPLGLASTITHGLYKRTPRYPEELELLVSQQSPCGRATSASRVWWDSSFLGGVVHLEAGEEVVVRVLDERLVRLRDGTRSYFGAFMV
Description: as §1

[8] = molecular target: T7, membrane LIGHT S194A (human, UniProt O43557 1-240); assay: flow cytometry, transfected HEK293FF, mAb at EC50
T7 chain: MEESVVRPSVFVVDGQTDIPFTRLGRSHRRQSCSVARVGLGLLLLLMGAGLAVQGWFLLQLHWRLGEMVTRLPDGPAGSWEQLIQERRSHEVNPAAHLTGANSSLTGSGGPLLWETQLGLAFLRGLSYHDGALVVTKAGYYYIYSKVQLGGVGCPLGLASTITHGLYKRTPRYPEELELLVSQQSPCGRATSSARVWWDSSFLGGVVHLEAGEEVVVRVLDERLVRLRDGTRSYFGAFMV
Description: as §1

[9] = molecular target: T8, membrane LIGHT W197A (human, UniProt O43557 1-240); assay: flow cytometry, transfected HEK293FF, mAb at EC50
T8 chain: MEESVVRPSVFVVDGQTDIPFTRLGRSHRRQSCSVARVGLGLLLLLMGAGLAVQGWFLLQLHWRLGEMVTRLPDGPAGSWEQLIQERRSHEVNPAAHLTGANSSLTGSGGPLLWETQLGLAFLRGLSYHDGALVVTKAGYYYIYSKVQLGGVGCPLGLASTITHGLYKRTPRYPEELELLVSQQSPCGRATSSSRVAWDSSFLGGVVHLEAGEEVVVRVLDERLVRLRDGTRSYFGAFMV
Description: as §1

membrane LIGHT without residues 81-84 (EL4-NC-LIGHT cells), sequence (O43557 other isoform, or with tags, fused parts or gaps): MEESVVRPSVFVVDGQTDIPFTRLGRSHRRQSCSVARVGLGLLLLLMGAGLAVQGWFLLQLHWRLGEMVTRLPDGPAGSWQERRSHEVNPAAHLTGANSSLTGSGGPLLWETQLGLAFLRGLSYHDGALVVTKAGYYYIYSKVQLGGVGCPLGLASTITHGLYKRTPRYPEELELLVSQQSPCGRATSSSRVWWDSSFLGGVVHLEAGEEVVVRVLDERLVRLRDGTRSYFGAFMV

B1: 2E08 (antibody, human IgG4, V domains shown)
VH: QVQMKESGAELVRPGVSVKISCKGSGYTFTDYAIHWVKQSHAKTLEWIGVISTYYGDASYNQKFKGKATMTVDKSSSTAYMELARLTSDDSAIYYCARSRGEYGNYDAMDYWGQGTSVTVSS
VL: DIVLTQSPASLAVSLGQRATISCKASQSVDYDGDSYMNWYQQKPGQPPKLLIYAASNLESGIPARFSGSGSGTDFTLNIHPVEEEDAATYYCQQSNEDPLTFGAGTKLELK
notes: chimeric human IgG4 (S-to-P, L-to-E at 248), human CL; also called Parental 2E08
IC50, inhibition of IL-8 secretion from HT-29 cells (EL4-NC-LIGHT cells) [1]: 1.8 nM
binding, % of WT [2]: 100%
binding, % of WT [3]: 44%
binding, % of WT [4]: 2%
binding, % of WT [5]: 93%
binding, % of WT [6]: 22%
binding, % of WT [7]: 0%
binding, % of WT [8]: 3%
binding, % of WT [9]: 0%

B2: 3A07 (antibody, human IgG4, V domains shown)
VH: QVQLQQSGAELVRPGAPVTLSCKASDYTFTDSEIHWVKQTPVHGLEWIGEIDPETGGTAYNQKFKGKATLTADKSSSTAYMELRSLTSEDSAVYYCSRETDYFFDYWGQGTTLTVSS
VL: ENVLTQSPAIMSASPGEKVTMTCSASSSVSYMYWYQQRPGSSPRLLIYDTSNLASGVPVRFSGSGSGTSYSLTISRMEAEDAATYYCQQWSSYPLTFGSGTKLEIK
notes: chimeric human IgG4 (S-to-P, L-to-E at 248), human CL; also called Parental 3A07
IC50, inhibition of IL-8 secretion from HT-29 cells (EL4-NC-LIGHT cells) [1]: 2 nM
binding, % of WT [2]: 100%
binding, % of WT [3]: 5%
binding, % of WT [4]: 0%
binding, % of WT [5]: 47%
binding, % of WT [6]: 4%
binding, % of WT [7]: 0%
binding, % of WT [8]: 1%
binding, % of WT [9]: 1%

B3: 3C10 (antibody, human IgG4, V domains shown)
VH: EVQLQQSGAELVRPGASVTLSCKASDYTFTDSEIHWVKQTPVHGLEWIGEIDPETGGTAYNQKFKGKATLTADKSSSTAYMELRSLTSEDSAVYYCSRETDYFFDYWGQGTTLTVSS
VL: DVVMTQTPAIMSASPGEKVTMTCSASSSVSYMYWYQQKPGSSPRLLIYDTSNLASGVPVRFSGSGSGTSYSLTISRMEAEDAATYYCQQWSSYPLTFGAGTKLELK
notes: chimeric human IgG4 (S-to-P, L-to-E at 248), human CL; also called Parental 3C10
IC50, inhibition of IL-8 secretion from HT-29 cells (EL4-NC-LIGHT cells) [1]: 1.9 nM
binding, % of WT [2]: 100%
binding, % of WT [3]: 3%
binding, % of WT [4]: 0%
binding, % of WT [5]: 40%
binding, % of WT [6]: 3%
binding, % of WT [7]: 0%
binding, % of WT [8]: 0%
binding, % of WT [9]: 0%

B4: 2B11 (antibody, human IgG4, V domains shown)
VH: EVQLVESGAELVRPGVSVKISCKGSGYTFTDYAIHWVKQSHAKSLEWIGVISTYYGDASYNQKFKGKATMTVDKSSSTAYMELARLTSEDSAIYYCARSRGEYGNYDAMDYWGQGTSVTVSS
VL: DIVLTQSPASLAVSLGQRATISCRASESVDSYGNSFMHWYQQKPGQPPKLLIYRASNLESGIPARFSGSGSRTDFTLTINPVEADDVATYYCQQSNEDPYTFGGGTKLEIK
notes: chimeric human IgG4 (S-to-P, L-to-E at 248), human CL; also called Parental 2B11
IC50, inhibition of IL-8 secretion from HT-29 cells (EL4-NC-LIGHT cells) [1]: 0.6 nM
binding, % of WT [2]: 100%
binding, % of WT [3]: 3%
binding, % of WT [4]: 0%
binding, % of WT [5]: 52%
binding, % of WT [6]: 1%
binding, % of WT [7]: 0%
binding, % of WT [8]: 0%
binding, % of WT [9]: 0%

B5: 3B04 (antibody, human IgG4, V domains shown)
VH: QVQLQQPGAELVRPGASVTLSCKASGYTFTDYEMHWVKQTPVHGLEWIGEIDPETGDTAYSQKFKGKATLTADKSSSTAYMEFRSLTSEDSAVYYCSRETDYFFDYWGQGTTLTVSS
VL: DIQMTQTPASLSASVGETVTITCGASENIYGALNWYQRKQGKSPQLLIYGATNLADGMSSRFSGSGSGRQYSLKISSLHPDDFATYYCQNVLTTPWTFGGGTKLEIKR
notes: chimeric: mouse variable domains on human IgG4 HC (S-to-P and L-to-E at 248) and human CL; also called Parental 3B04; 3B04 chimeric
IC50, inhibition of IL-8 secretion from HT-29 cells (EL4-NC-LIGHT cells) [1]: 0.2 nM
binding, % of WT [2]: 100%
binding, % of WT [3]: 6%
binding, % of WT [4]: 0%
binding, % of WT [5]: 68%
binding, % of WT [6]: 2%
binding, % of WT [7]: 0%
binding, % of WT [8]: 0%
binding, % of WT [9]: 0%

B6: 3D12 (antibody, human IgG4, V domains shown)
VH: QVQLQQPGAELVRPGASVTLSCKASDYTFTDSEIHWVKQTPVHGLEWIGEIDPETGGTAYNQKFKGKATLTADKSSSTAYMELRSLTSEDSAVYYCSRETDYFFDYWGQGTTLTVSS
VL: DIQMTQSPASLSASVGETVTITCGASENIYGALNWYQRKQGKSPQLLIYGATNLADGMSSRFSGSGSGRQYSLKISSLHPDDVATYYCQNVLSTPWTFGGGTKLEIKR
notes: chimeric: mouse variable domains on human IgG4 HC (S-to-P and L-to-E at 248) and human CL; also called Parental 3D12; 3D12 chimeric
IC50, inhibition of IL-8 secretion from HT-29 cells (EL4-NC-LIGHT cells) [1]: 0.1 nM
binding, % of WT [2]: 100%
binding, % of WT [3]: 20%
binding, % of WT [4]: 1%
binding, % of WT [5]: 82%
binding, % of WT [6]: 8%
binding, % of WT [7]: 0%
binding, % of WT [8]: 2%
binding, % of WT [9]: 1%

B7: 3E09 (antibody, V domains shown)
VH: EVQLVESGGGLVKPGGSLKLSCEASGFTFSDYYMYWVRQTPEKRLEWVAAIGDGGIYTYYADTVKGRFTISRDNAKNILYLQMSSLKSNDTAMYYCARGTGDGFAYWGQGTLVTVS
VL: DIVLTQSPASLAVSLGQRATISCRASESVDSYGNSFMHWYQQKPGQPPKLLIYLASNLESGVPARFSGSGSRTDFTLTIDPVEADDAATYYCQQNNEDPYTFGGGTKLEIK
notes: chimeric human IgG4 (S-to-P, L-to-E at 248), human CL; also called Parental 3E09
binding, % of WT [2]: 100%
binding, % of WT [3]: 35%
binding, % of WT [4]: 1%
binding, % of WT [5]: 97%
binding, % of WT [6]: 88%
binding, % of WT [7]: 0%
binding, % of WT [8]: 1%
binding, % of WT [9]: 1%
